In PMC2632905:
Like-named read-outs stand apart in the source and are kept apart here.

T1: Cdc13p full-length (Saccharomyces cerevisiae, UniProt P32797 1-924)
T1 sequence: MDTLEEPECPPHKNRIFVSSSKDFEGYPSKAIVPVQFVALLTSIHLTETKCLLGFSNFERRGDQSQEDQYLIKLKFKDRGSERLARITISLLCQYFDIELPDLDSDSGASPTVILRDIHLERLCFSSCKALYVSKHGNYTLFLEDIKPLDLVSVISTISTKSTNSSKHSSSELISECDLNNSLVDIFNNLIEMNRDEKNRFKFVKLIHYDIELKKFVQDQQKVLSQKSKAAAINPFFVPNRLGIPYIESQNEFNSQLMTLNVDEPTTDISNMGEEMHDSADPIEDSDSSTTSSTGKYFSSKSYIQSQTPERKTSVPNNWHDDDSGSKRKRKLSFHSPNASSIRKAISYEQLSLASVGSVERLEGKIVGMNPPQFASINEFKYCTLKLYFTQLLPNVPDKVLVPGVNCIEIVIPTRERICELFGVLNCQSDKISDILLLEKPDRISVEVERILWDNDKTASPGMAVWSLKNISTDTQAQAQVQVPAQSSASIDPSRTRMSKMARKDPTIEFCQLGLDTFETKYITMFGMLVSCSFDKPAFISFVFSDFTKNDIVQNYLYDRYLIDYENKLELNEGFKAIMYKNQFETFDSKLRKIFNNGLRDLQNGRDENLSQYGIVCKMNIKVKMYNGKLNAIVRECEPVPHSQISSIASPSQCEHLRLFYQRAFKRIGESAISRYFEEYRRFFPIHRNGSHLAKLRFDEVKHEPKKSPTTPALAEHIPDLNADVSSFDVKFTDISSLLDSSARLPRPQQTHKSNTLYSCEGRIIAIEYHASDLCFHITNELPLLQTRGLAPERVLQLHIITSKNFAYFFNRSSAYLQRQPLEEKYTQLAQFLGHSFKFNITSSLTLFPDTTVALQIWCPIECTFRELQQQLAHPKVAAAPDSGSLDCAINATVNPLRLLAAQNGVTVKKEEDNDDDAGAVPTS

T2: Cdc13(DBD) (Saccharomyces cerevisiae, UniProt P32797 497-694)
T2 sequence: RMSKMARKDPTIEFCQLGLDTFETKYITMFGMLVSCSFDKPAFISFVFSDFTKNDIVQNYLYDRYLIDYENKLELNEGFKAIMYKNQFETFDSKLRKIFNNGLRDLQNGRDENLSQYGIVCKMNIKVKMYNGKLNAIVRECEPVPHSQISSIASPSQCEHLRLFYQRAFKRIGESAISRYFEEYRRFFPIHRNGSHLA

B1: TEL* (ssDNA)
DNA: GTGTCTGTCTG
B2: TEL (ssDNA)
DNA: GTGTGGGTGTG
B3: TEL*-TGTGGG (ssDNA)
DNA: GTGTCTGTCTGTGTGGG
B4: TEL*-GG (ssDNA)
DNA: GTGTCTGTCTGGG
B5: TEL*-GGG (ssDNA)
DNA: GTGTCTGTCTGGGG
B6: TEL*-GTGTGGG (ssDNA)
DNA: GTGTCTGTCTGGTGTGGG
B7: TEL*-a10 (ssDNA)
DNA: GTGTCTGTCTGAAAAAAAAAA
B8: TEL*-GTGGG (ssDNA)
DNA: GTGTCTGTCTGGTGGG

Columns and labels:
Cdc13p full-length [1] = biological target: T1, Cdc13p full-length; assay: EMSA
Cdc13(DBD) [2] = biological target: T2, Cdc13(DBD); assay: filter binding
Cdc13p full-length [3] = biological target: T1, Cdc13p full-length; assay: footprinting
Cdc13(DBD) [4] = biological target: T2, Cdc13(DBD); assay: footprinting
Cdc13(DBD) [5] = biological target: T2, Cdc13(DBD); assay: footprinting; remark: listed apart in the source
Cdc13p full-length [6] = biological target: T1, Cdc13p full-length; assay: footprinting; remark: listed apart in the source

Row | Binder | Kd (Cdc13p full-length [1]) [nM] | Kd (Cdc13(DBD) [2]) [nM] | also measured
1 | B1 | 11 ± 3.8 | 620 ± 120 | –
2 | B2 | 0.43 ± 0.17 | 2.8 ± 0.6 | –
3 | B3 | – | – | binding result (Cdc13p full-length [3]): binds; binding result (Cdc13(DBD) [4]): binds
4 | B4 | 0.81 ± 0.03 | – | –
5 | B5 | 2.2 ± 0.7 | 33 ± 5.7 | –
6 | B6 | 0.81 ± 0.15 | – | –
7 | B7 | 7.4 ± 2.4 | 380 ± 57 | –
8 | B8 | – | – | binding result (Cdc13(DBD) [5]): binds; binding result (Cdc13p full-length [6]): binds
